Data on 2 substances can be found in article PMC10515946.

For assay [1], the target named is 1059 SOSIP (TPA-1059 SOSIP, soluble Env trimer of the transmitted/founder HIV-1 strain 1059), purifi (HIV-1 strain 1059). The assay can be described thus: cryo-EM structure.
In assay [2] the target is BG505 SOSIP (soluble Env trimer of HIV-1 BG505) (HIV-1 strain BG505). Briefly: cryo-EM structure.

In general, stoichiometry N refers to the number of molecules, sites or subunits per partner or assembly. “1059 SOSIP (TPA-1059 SOSIP, soluble Env trimer of the transmitted/founder HIV-1 strain 1059), purifi (complex)” yielded a stoichiometry N in assay [1] of 3.
Turning to “BG505 SOSIP (soluble Env trimer of HIV-1 BG505) (complex)”, the stoichiometry N in assay [2] was determined as 3.
